According to article PMC7527219 (Science Advances, 2020):
Entries after “also recorded” stand apart in the source; their conditions may differ. Peptide text beside a SMILES is read from it.

Experiments:
[1] = molecular target: PmtCD PSM transporter (C2D2 heterotetramer) (S. aureus); experiment: MST
[2] = b7: ref [9], [10]; b55: ref [10]; cited from earlier work

Compound	stoichiometry N [1]	cytotoxicity (in words) [2]
PSMα3F3A peptide	> 2	
CSCC[C@H](NC=O)C(=O)N[C@@H](CCC(=O)O)C(=O)N[C@@H](C)C(=O)N[C@H](C(=O)N[C@@H](C)C(=O)N[C@@H](CCCCN)C(=O)N[C@@H](CC(C)C)C(=O)N[C@@H](Cc1ccccc1)C(=O)N[C@@H](CCCCN)C(=O)N[C@@H](Cc1ccccc1)C(=O)N[C@@H](Cc1ccccc1)C(=O)N[C@@H](CCCCN)C(=O)N[C@@H](CC(=O)O)C(=O)N[C@@H](CC(C)C)C(=O)N[C@@H](CC(C)C)C(=O)NCC(=O)N[C@@H](CCCCN)C(=O)N[C@@H](Cc1ccccc1)C(=O)N[C@@H](CC(C)C)C(=O)NCC(=O)N[C@@H](CC(N)=O)C(=O)N[C@@H](CC(N)=O)C(=O)O)C(C)C [PSMα3F3A] (HELM PEPTIDE1{[O=C[*:2]].M.E.A.V.A.K.L.F.K.F.F.K.D.L.L.G.K.F.L.G.N.N}$$$$V2.0)		cytotoxic; also recorded: maintains cytotoxicity
